This note sets out measurements from patent publication US20250388666A1 (BRIGHAM AND WOMEN S HOSPITAL, published 2025).

In assay [1] the target is T1, CEACAM1 (Sino Biological) (human, UniProt P13688 35-428, limits assumed).
T1 construct: may be the same as CEACAM1-HIS; also called hCEACAM1; biotinylated soluble CEACAM1
T1 sequence: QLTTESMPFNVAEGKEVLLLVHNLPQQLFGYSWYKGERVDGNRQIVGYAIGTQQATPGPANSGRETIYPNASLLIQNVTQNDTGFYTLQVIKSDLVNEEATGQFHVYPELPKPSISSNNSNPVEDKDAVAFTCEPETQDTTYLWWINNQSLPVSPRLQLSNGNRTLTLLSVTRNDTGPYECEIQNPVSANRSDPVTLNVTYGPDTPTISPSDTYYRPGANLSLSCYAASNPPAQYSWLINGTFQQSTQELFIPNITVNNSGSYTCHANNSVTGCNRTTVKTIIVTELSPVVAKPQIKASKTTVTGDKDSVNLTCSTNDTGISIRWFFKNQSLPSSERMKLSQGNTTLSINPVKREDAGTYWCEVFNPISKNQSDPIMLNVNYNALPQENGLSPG
Description: SPR single-cycle. A digest of the protocol:
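Humanized affinity-matured IgGs from crude supernatants captured on Protein A to ~100 RU, with CEACAM1 analyte injected at 25–100 nM (three-point, two-fold) in HBS-P+ without regeneration. 200 s association per injection, 300 s single dissociation; reference-channel and blank subtracted.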

The target in assay [2] is T1, CEACAM1 (Sino Biological). Description: SPR multi-cycle, IgG on Protein A.
The target of assay [3] is T2, CEACAM3 (Sino Biological) (human, UniProt P40198 35-155, limits assumed).
T2 construct: also called hCEACAM3
T2 sequence (looked up): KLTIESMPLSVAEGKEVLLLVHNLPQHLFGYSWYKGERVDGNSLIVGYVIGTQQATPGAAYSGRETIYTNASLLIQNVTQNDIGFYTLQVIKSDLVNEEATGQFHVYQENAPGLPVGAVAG
The experiment in a line: binding ELISA on plate-coated CEACAM (0.5 µg/mL); antibody at 1.67, 0.062 and 0.0069 µg/mL; signal as % of parent IgG on CEACAM1 at 1.67 µg/mL on the same plate.

Assay [4] has as its target T3, CEACAM5 (Sino Biological) (human, UniProt P06731 35-685).
T3 construct: also called hCEACAM5
T3 sequence (looked up): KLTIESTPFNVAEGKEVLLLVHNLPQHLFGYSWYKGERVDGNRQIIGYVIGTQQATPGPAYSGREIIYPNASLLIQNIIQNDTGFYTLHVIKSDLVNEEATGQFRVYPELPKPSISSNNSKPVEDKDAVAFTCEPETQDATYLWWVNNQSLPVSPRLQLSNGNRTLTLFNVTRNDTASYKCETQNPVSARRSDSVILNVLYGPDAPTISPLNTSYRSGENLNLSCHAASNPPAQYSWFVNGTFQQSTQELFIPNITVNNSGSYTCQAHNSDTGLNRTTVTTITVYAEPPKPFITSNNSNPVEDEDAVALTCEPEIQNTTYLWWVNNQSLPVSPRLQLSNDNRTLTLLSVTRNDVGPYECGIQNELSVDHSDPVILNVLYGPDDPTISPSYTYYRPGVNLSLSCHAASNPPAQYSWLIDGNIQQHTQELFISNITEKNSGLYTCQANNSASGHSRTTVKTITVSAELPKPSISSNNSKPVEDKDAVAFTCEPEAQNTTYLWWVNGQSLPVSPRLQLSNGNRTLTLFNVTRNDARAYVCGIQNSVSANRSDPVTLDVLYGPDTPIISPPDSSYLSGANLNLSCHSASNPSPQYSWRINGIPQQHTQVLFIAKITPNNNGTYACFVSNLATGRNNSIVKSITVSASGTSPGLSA
The assay is described as above.

In assay [5] the target is T4, CEACAM6 (Sino Biological) (human, UniProt P40199 35-320).
T4 construct: also called hCEACAM6
T4 sequence (looked up): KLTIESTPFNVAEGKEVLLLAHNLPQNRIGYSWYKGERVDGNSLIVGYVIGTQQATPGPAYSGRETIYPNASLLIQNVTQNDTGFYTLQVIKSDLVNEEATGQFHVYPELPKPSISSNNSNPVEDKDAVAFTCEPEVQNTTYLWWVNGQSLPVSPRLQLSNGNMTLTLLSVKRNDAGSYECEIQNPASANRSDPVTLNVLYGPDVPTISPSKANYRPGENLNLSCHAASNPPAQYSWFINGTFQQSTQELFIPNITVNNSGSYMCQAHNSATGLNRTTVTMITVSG
The assay is described as above.

For assay [6], the target named is T2, CEACAM3 (Sino Biological). The assay is described as above. The source holds these as a separate data set.
In assay [7] the target is T3, CEACAM5 (Sino Biological). Described as above. The source holds these as a separate data set.
Assay [8] deals with T4, CEACAM6 (Sino Biological). The description is as above. The source holds these as a separate data set.
Assay [9] deals with T2, CEACAM3 (Sino Biological). The description is as above. The source holds these as a separate data set.
Assay [10] addresses T1, CEACAM1 (Sino Biological). Description: single-point competition ELISA: crude periplasmic scFv extract mixed 1:1 with VH2 N56Q/Vk4 S27(f)A IgG (0.246 µg/mL) on plate-coated CEACAM1 (0.0625 µg/mL); remaining IgG detected with anti-human-HRP, absorbance 450 nm. As to the method:
Nunc Immuno MaxiSorp 96 well flat bottom microtitre plates were coated with CEACAM1 at 0.0625 μg/ml overnight. Plates were subsequently washed and blocked for 1 hour at room temperature with 3% BSA/PBS. Periplasmic extracts were diluted 1:1 with VH2 N56Q/Vk4 S27(f)A IgG (parental RSB02 IgG) at 0.246 μg/mL in 6% BSA/PBS. The diluted periplasmic extract was then added to the blocked plate (100 μL per well) and the samples incubated on the plate for 1 hour at room temperature. Plates were subsequently washed and the binding of VH2 N56Q/Vk4 S27(f)A IgG was detected with an anti-human-HRP antibody (Sigma, Gillingham, UK) and TMB substrate (Invitrogen). The reaction was stopped with 1 M HCl, absorbance read at 450 nm on a Dynex Technologies MRX TC II plate reader and the binding data plotted.
Improved clones were identified on the basis of activity in the competition ELISA relative to the parental RSB02 scFv assayed on the same plate. Greater than 7300 peripreps were analyzed in total from all three libraries. Positive hits were picked into ‘cherry’ plates, re-tested within the competition ELISA to confirm results and sequenced. Dominant single sequence clones were identified in both the VH B1 (˜41% of clones sequenced after round 3 were a single dominant clone) and VL libraries (˜20% of clones were single dominant clones from those sequenced from round 3 and 4).

Assay [11] deals with T1, CEACAM1 (Sino Biological). Description: phage binding assay.

Where two headings read alike, the source gives them in different places.

B1: He3/L20 (antibody, IgG4, V domains shown)
VH: EVQLLESGGGLVQPGGSLRLSCAASGFSFSDYYLYWVRQAPGKGLEWVATISVGGGQTSYADSVKGRFTISRDNSKNTLYLQMNSLRAEDTAMYYCTRALTYGPAWLAYWGQGTLVTVSS
VL: DIVMTQSPDSLAVSLGERATINCKSSQSLLNSANQKNYLAWYQQKPGQPPKLLIYFASTRESGVPDRFSGSGSGTDFTLTISSLQAEDVAVYYCQSHFPYPLTFGGGTKVEIK
notes: IgG4 S241P, kappa; also called He3 / 20
Regarding B1, in [1], the Kd worked out at 74 nM and the “fold better than Parent (KD)” value was 2.15 fold. For the same molecule, in [2], the Kd stood at 25.5 nM, the koff came to 0.0078 s⁻¹, the kon worked out at 306000 M⁻¹ s⁻¹ and the “relative KD to Parent” value was found to be 3.34 ratio. Also, the binding result in assay [3] was “no binding (tested: 1.67 µg/mL)”. In addition, the binding result in assay [4] is listed as “no binding (tested: 1.67 µg/mL)”. The binding result in assay [5] is “no binding (tested: 1.67 µg/mL)”.

B2: Parent VH/L1 (antibody, IgG4, V domains shown)
VH: EVQLLESGGGLVQPGGSLRLSCAASGFSFSDYYLYWVRQAPGKGLEWVATISVGGGQTSYADSVKGRFTISRDNSKNTLYLQMNSLRAEDTAMYYCTRGLYYGPAWFAYWGQGTLVTVSS
VL: DIVMTQSPDSLAVSLGERATINCKSSQSLLNSANQKNYLAWYQQKPGQPPKLLIYFASTRESGVPDRFSGSGSGTDFTLTISSLQAEDVAVYYCQSHYPFYYTFGGGTKVEIK
notes: IgG4 S241P, kappa; also called VHp/L1; VH2 N56Q / 1
For B2, in [1], the Kd came to 41 nM and the “fold better than Parent (KD)” value is 3.87 fold. Further, in assay [2], the Kd came out at 125 nM, the koff was 0.00413 s⁻¹, the kon was 33100 M⁻¹ s⁻¹ and the “relative KD to Parent” value is 0.68 ratio. Moreover, the binding result in assay [6] was “no binding (tested: 1.67 µg/mL)”. The binding result in [7] was “no binding (tested: 1.67 µg/mL)”. In assay [8], the binding result was “no binding (tested: 1.67 µg/mL)”.

B3: He9/L6 (antibody, IgG4, V domains shown)
VH: EVQLLESGGGLVQPGGSLRLSCAASGFSFSDYYLYWVRQAPGKGLEWVATISVGGGQTSYADSVKGRFTISRDNSKNTLYLQMNSLRAEDTAMYYCARAMYYGPAWFAYWGQGTLVTVSS
VL: DIVMTQSPDSLAVSLGERATINCKSSQSLLNSANQKNYLAWYQQKPGQPPKLLIYFASTRESGVPDRFSGSGSGTDFTLTISSLQAEDVAVYYCQSHYPFSFTFGGGTKVEIK
notes: IgG4 S241P, kappa; also called He9 / 6
For the molecule B3, in assay [1], the Kd came to 22 nM and the “fold better than Parent (KD)” value is 7.1 fold. Besides, in [2], binding was characterised by a dissociation constant (Kd) of 39.6 nM, the koff amounted to 0.00151 s⁻¹, the kon came out at 38100 M⁻¹ s⁻¹ and the “relative KD to Parent” value was found to be 4.82 ratio. The binding result in [9] is “no binding (tested: 1.67 µg/mL)”.

B4: Parent (scFv)
scFv: EVQLLESGGGLVQPGGSLRLSCAASGFSFSDYYLYWVRQAPGKGLEWVATISVGGGQTSYADSVKGRFTISRDNSKNTLYLQMNSLRAEDTAMYYCTRGLYYGPAWFAYWGQGTLVTVSSGGGGSGGGGSGGGGSDIVMTQSPDSLAVSLGERATINCKSSQSLLNSANQKNYLAWYQQKPGQPPKLLIYFASTRESGVPDRFSGSGSGTDFTLTISSLQAEDVAVYYCQQHYSTPWTFGGGTKVEIK
notes: also called parent humanized scFv; parental RSB02 scFv; not shown: C-terminal Flag tag from phagemid pANT65
In the case of B4, the binding result in assay [10] is recorded as “binds”.

B5: parent VH2 N56Q/Vκ4 S27(f)A scFv displayed on phage (scFv)
scFv: EVQLLESGGGLVQPGGSLRLSCAASGFSFSDYYLYWVRQAPGKGLEWVATISVGGGQTSYADSVKGRFTISRDNSKNTLYLQMNSLRAEDTAMYYCTRGLYYGPAWFAYWGQGTLVTVSSGGGGSGGGGSGGGGSDIVMTQSPDSLAVSLGERATINCKSSQSLLNSANQKNYLAWYQQKPGQPPKLLIYFASTRESGVPDRFSGSGSGTDFTLTISSLQAEDVAVYYCQQHYSTPWTFGGGTKVEIK
notes: also called parent scFv hyper phage; parent M13 helper phage; not shown: C-terminal Flag tag and gene III fusion
As to B5, the binding result in [11] is on record as “binds”.
